The Kd is the free concentration of one partner at which half of the binding sites on the other are occupied at equilibrium, for simple one-to-one binding.

From publication PMC4359774, “AZT resistance alters enzymatic properties and creates an ATP-binding site in SFVmac reverse transcriptase” come the findings set out here.

This data set has as its target T1, SFVmac PR-RT WT (Simian foamy virus from macaques …, UniProt P23074 1-751).
T1 sequence: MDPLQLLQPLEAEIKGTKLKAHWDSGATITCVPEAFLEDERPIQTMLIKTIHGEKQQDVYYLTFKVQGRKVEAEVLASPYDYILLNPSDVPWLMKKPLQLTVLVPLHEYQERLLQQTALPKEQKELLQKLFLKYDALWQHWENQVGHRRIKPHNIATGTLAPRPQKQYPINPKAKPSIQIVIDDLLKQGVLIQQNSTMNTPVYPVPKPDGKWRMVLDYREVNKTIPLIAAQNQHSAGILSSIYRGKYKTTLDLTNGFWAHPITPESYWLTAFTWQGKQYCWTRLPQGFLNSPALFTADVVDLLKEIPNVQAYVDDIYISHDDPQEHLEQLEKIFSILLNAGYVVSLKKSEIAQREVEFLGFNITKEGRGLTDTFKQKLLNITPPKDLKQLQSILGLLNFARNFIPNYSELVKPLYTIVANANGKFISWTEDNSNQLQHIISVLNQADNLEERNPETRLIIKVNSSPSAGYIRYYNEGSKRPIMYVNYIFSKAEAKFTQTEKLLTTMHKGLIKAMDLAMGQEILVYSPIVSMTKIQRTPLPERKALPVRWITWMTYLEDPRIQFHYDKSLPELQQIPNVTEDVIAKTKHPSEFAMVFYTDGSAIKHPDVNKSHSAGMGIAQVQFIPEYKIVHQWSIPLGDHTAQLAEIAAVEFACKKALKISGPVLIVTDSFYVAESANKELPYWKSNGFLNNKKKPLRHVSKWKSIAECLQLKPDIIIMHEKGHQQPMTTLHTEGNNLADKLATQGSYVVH
The experiment in a line: fluorescence anisotropy; Fluorescence equilibrium titration, 5 nM DNA, 25 C; buffer, salt and pH not given in the material (refs 14, 43). As to conditions: protein: recombinant; label: 5' DY647 on template (S6); 24 bp; template 5' overhang 5 nt and 3' overhang 11 nt.

B1: 24/40-mer DNA/DNA primer/template (dsDNA)
DNA 1: CTAATTCCGCTTTCCCCTCTCCTGGTGATCCTTTCCATCC
DNA 2: ATCACCAGGAGAGGGGAAAGCGGA
For the molecule B1, the Kd was found to be 9.6 ± 0.7 nM.
